{
  "source": "patent US20220154204A1",
  "about": "(University of California, published 2022)",
  "binders": {"B1": {"name": "cYFP-ABI1 (enzyme, UniProt P49597 1-434, looked up)", "chain": "MEEVSPAIAGPFRPFSETQMDFTGIRLGKGYCNNQYSNQDSENGDLMVSLPETSSCSVSGSHGSESRKVLISRINSPNLNMKESAAADIVVVDISAGDEINGSDITSEKKMISRTESRSLFEFKSVPLYGFTSICGRRPEMEDAVSTIPRFLQSSSGSMLDGRFDPQSAAHFFGVYDGHGGSQVANYCRERMHLALAEEIAKEKPMLCDGDTWLEKWKKALFNSFLRVDSEIESVAPETVGSTSVVAVVFPSHIFVANCGDSRAVLCRGKTALPLSVDHKPDREDEAARIEAAGGKVIQWNGARVFGVLAMSRSIGDRYLKPSIIPDPEVTAVKRVKEDDCLILASDGVWDVMTDEEACEMARKRILLWHKKNAVAGDASLLADERRKEGKDPAAMSAAEYLSKLAIQRGSKDNISVVVVDLKPRRKLKSKPLN", "notes": "BiFC positive control partner; order of tag and protein as the printed name gives it; not shown: C-terminal YFP fragment (cYFP) from BiFC vector pSPYCE(M)"}},
  "target": "T1, nYFP-GEF1 (UniProt Q93ZY2 1-548)",
  "T1 construct": "BiFC positive control partner; also called RopGEF1; not shown: N-terminal YFP fragment (nYFP) from BiFC vector pSPYNE173",
  "T1 sequence (looked up)": "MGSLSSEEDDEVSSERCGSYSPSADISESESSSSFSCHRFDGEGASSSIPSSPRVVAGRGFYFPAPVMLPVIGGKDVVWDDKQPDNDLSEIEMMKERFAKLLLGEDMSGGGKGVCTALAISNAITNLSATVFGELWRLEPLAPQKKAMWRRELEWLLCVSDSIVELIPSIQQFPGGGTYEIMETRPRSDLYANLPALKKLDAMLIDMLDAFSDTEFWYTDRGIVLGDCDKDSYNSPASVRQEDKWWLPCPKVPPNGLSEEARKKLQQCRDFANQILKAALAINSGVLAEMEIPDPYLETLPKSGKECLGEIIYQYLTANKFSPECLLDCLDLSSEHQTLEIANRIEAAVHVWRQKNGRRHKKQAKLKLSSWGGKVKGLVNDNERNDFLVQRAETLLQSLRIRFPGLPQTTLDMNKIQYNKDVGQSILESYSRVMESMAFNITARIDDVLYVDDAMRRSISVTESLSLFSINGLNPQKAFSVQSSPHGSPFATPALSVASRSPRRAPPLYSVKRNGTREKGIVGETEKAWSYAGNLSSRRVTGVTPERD",
  "assay": "BiFC in Nicotiana benthamiana leaves, positive control",
  "procedure": "a, Co-immunoprecipitation experiments using transiently expressed M3Kδ6 and OST1/SnRK2.6 in Arabidopsis mesophyll cell protoplasts. OST1/SnRK2.6-GFP or GFP control co-expressed with M3Kδ6-FLAG were immunoprecipitated with GFP antibodies. Precipitated proteins were analyzed by immunoblots using GFP or FLAG antibody. b and c, BiFC analyses of nYFP-M3Kδ6 (b) or nYFP-M3Kδ7 (c) with OST1/SnRK2.6-cYFP, SnRK2.2-cYFP, 2.4-cYFP and 2.10-cYFP infiltrated in 6-week-old Nicotiana benthamiana leaves. nYFP-GEF1/cYFP-ABI1 combination was used as a positive control. All images are at the same scale. Scale bars=50 μm. d and e, BiFC quantifications measured from maximal projections of z-stacks and normalized over an infiltration control expressing p19 only. BiFC quantifications were analyzed by one-way ANOVA followed by Tukey's tests. Confocal images were acquired using identical settings for each BiFC experiment. Means±s.e.m. (n=45).",
  "data": [
    {"binder": "B1", "values": [
      {"measurement": "binding result", "value": "binds"}
    ]}
  ]
}
